Where two headings read alike, the source gives them in different places.
Experiments:
MERS-CoV Spike antigen [1] = biological target: T1, MERS-CoV Spike antigen (MERS-CoV, UniProt K9N5Q8 18-1291); assay: cell-based or functional assay
T1 sequence: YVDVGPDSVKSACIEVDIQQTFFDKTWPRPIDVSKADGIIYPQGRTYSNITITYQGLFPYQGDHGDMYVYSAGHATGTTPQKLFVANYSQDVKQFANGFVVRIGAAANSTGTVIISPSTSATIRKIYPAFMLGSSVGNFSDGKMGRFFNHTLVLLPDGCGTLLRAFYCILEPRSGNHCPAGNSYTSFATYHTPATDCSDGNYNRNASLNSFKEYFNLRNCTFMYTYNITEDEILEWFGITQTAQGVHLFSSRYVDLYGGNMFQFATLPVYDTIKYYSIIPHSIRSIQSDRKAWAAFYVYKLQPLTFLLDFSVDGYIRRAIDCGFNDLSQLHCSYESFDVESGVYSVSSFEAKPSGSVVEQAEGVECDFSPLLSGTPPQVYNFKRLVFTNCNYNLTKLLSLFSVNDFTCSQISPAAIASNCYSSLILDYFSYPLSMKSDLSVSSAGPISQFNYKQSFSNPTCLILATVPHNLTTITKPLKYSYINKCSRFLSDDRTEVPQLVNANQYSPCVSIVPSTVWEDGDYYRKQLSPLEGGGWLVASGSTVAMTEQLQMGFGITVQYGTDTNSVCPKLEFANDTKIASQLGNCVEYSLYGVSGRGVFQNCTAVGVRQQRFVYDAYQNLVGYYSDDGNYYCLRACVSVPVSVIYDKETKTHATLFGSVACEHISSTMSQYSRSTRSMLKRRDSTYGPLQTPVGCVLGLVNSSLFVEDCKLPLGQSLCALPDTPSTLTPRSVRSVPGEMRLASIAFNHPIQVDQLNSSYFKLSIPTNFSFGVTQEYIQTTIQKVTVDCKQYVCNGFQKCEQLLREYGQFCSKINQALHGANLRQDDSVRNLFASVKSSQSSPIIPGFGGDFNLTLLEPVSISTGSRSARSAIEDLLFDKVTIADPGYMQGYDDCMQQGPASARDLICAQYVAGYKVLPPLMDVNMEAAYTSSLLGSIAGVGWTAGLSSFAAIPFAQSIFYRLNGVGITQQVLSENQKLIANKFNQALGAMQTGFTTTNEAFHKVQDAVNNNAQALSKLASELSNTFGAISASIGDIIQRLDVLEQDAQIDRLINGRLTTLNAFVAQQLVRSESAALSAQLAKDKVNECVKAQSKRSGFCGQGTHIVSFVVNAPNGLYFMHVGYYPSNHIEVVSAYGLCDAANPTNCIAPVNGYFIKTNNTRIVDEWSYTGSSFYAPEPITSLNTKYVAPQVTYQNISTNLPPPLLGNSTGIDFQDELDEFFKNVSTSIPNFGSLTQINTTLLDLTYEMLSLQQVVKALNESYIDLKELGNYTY

SARS-CoV-1 Spike antigen [2] = biological target: T2, SARS-CoV-1 Spike antigen (SARS-CoV-1, UniProt P59594 14-1190); assay: cell-based or functional assay
hCoV-NL63 Spike antigen [3] = biological target: T3, hCoV-NL63 Spike antigen (hCoV-NL63, UniProt Q6Q1S2 19-1291); assay: cell-based or functional assay
T3 sequence: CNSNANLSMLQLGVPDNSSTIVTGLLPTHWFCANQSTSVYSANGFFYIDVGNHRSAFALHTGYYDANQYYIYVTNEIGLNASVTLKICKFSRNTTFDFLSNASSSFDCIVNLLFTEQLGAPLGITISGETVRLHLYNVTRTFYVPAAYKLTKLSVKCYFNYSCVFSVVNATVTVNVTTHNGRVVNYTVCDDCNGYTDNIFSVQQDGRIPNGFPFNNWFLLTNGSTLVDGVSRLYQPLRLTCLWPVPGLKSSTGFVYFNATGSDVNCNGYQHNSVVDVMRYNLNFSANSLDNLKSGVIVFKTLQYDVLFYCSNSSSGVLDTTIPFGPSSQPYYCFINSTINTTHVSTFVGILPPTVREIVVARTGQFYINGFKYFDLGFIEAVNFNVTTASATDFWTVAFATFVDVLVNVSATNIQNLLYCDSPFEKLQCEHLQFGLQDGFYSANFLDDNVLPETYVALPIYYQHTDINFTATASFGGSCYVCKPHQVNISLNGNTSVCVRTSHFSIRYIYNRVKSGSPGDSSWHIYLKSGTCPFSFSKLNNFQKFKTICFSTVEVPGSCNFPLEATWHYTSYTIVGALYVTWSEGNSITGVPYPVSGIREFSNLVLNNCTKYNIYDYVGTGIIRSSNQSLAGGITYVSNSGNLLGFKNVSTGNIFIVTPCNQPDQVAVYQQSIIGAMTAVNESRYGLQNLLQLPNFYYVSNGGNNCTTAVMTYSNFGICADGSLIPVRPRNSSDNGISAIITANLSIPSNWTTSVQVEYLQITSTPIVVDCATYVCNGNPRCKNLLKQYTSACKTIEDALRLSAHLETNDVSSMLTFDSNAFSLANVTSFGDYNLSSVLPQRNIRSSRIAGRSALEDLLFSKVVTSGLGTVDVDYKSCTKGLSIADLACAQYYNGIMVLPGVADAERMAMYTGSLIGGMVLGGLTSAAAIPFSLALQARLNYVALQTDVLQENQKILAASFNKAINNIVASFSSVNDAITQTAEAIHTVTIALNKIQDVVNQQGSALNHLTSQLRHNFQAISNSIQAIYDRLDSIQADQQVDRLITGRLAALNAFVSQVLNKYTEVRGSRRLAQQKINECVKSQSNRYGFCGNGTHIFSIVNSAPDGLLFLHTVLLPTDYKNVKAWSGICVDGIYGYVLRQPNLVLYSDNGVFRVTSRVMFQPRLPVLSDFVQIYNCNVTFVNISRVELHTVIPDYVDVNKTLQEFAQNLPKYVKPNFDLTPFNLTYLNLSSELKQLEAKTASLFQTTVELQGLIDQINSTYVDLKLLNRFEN

SARS-CoV-1 Spike antigen [4] = biological target: T2, SARS-CoV-1 Spike antigen; assay: cell-based or functional assay; remark: listed apart in the source
SARS-CoV-2 Spike antigen [5] = biological target: T4, SARS-CoV-2 Spike antigen (SARS-CoV-2, UniProt P0DTC2 14-1208); assay: cell-based or functional assay
hCoV-NL63 Spike antigen [6] = biological target: T3, hCoV-NL63 Spike antigen; assay: ELISA, Spike antigen coated on plate
SARS-CoV-2 Spike antigen [7] = biological target: T4, SARS-CoV-2 Spike antigen; assay: cell-based or functional assay; remark: listed apart in the source
MERS-CoV Spike antigen [8] = biological target: T1, MERS-CoV Spike antigen; assay: cell-based or functional assay; remark: listed apart in the source
SARS-CoV-1 Spike antigen [9] = biological target: T2, SARS-CoV-1 Spike antigen; assay: cell-based or functional assay; remark: listed apart in the source
SARS-CoV-2 Spike antigen [10] = biological target: T4, SARS-CoV-2 Spike antigen; assay: cell-based or functional assay; remark: listed apart in the source
SARS-CoV-2 Spike antigen [11] = biological target: T4, SARS-CoV-2 Spike antigen; assay: cell-based or functional assay; remark: listed apart in the source

B1: Bispecific 1 (bispecific antibody)
heavy 1: not shown
light 1: EIVLTQSPGTLSLSPGERATLSCRASQSVRRNYFAWYQQKRGQAPRLLIYDASTRATGIPDRFSGSGSGTDFTLTISRLEPEDFAVYYCQQYDSSPPMYIFGQGTKLEIKSSASTKGPSVFPLAPSSKSTSGGTAALGCLVKDYFPEPVTVSWNSGALTSGVHTFPAVLQSSGLYSLSSVVTVPSSSLGTQTYICNVNHKPSNTKVDKKVEPKSC
heavy 2: not shown
light 2: QSALTQPPSASGSPGQSVTISCSGTSSDVGGYNFVSWYQHHPGKAPKILIYEVTKRPSGVPDRFSGSKSGNTASLTVSGLQAEDEADYYCSSYGGTNNLLFGGGTKLTVLGQPKAAPSVTLFPPSSEELQANKATLVCLISDFYPGAVTVAWKADSSPVKAGVETTTPSKQSNNKYAASSYLSLTPEQWKSHRSYSCQVTHEGSTVEKTVAPTECS
- Live virus neutralization IC50 (MERS-CoV Spike antigen [1]): 1.32 µg/mL
- Live virus neutralization IC50 (SARS-CoV-1 Spike antigen [2]): 6.67 µg/mL

B2: Parental mAb 2 (antibody, V domains shown)
VH: QMQLMQSGAEVKKPGASVTVSCKASGDTFSDYRIHWVRQAPGQGLEWMGRMNPKSGDTNFAQKFQGRVTMTRDMSINTAYMTLSGLTFDDTALYYCASLLIVGGFDPLDDFEVWGQGTMVTISS
VL: QSALTQPPSASGSPGQSVTISCSGTSSDVGGYNFVSWYQHHPGKAPKILIYEVTKRPSGVPDRFSGSKSGNTASLTVSGLQAEDEADYYCSSYGGTNNLLFGGGTKLTVL
- Live virus neutralization IC50 (MERS-CoV Spike antigen [1]): 11.6 µg/mL
- Live virus neutralization IC50 (SARS-CoV-1 Spike antigen [2]): 5.94 µg/mL

B3: Parental mAb 1 (antibody, V domains shown)
VH: QEQLVQSGAEVKKPGASVKVSCKSSGFTFSYFYLHWVRQAPGQGLEWMGIINPRGDGTRYAQKFQGRVTMTRDASTGTLYMELRSLRSEDTAVYYCARGADHGAFDIWGQGTMVTVSS
VL: EIVLTQSPGTLSLSPGERATLSCRASQSVRRNYFAWYQQKRGQAPRLLIYDASTRATGIPDRFSGSGSGTDFTLTISRLEPEDFAVYYCQQYDSSPPMYIFGQGTKLEIK
notes: also called antibody according to the invention; first parental antibody
- Pseudovirion neutralization IC50 (hCoV-NL63 Spike antigen [3]): > 250 µg/mL
- Pseudovirion neutralization IC50 (SARS-CoV-1 Spike antigen [4]): 0.588 µg/mL
- Pseudovirion neutralization IC50 (SARS-CoV-2 Spike antigen [5]): 0.072 µg/mL
- binding result (hCoV-NL63 Spike antigen [6]): no binding (tested: 10.0-0.000002 nM)
- Live virus neutralization IC50 (MERS-CoV Spike antigen [1]): 0.86 µg/mL
- Live virus neutralization IC50 (SARS-CoV-1 Spike antigen [2]): 4.18 µg/mL
- Live virus neutralization IC50 (SARS-CoV-2 Spike antigen [7]): 6.44 µg/mL
- Live virus neutralization IC50 (MERS-CoV Spike antigen [8]): 1.49 µg/mL
- Live virus neutralization IC50 (SARS-CoV-1 Spike antigen [9]): 2.73 µg/mL
- Live virus neutralization IC50 (SARS-CoV-2 Spike antigen [10]): 9.87 µg/mL
- Pseudovirion neutralization IC50 (SARS-CoV-2 Spike antigen [11]): 0.072 µg/mL
